From article PMC9278964
pEC50: −log10 of the molar value. Read-outs that look alike come from different tables or passages of the source.

How the values were obtained:
[1] = biological target: biotinylated PD-L1 (Homo sapiens (assumed)) (UniProt Q9NZQ7); experiment: ELISA
[2] = biological target: biotinylated PD-L1 (Homo sapiens (assumed)) (UniProt Q9NZQ7); experiment: ELISA; remark: listed apart in the source

Sequence of UniProt Q9NZQ7 (Q9NZQ7 19-290): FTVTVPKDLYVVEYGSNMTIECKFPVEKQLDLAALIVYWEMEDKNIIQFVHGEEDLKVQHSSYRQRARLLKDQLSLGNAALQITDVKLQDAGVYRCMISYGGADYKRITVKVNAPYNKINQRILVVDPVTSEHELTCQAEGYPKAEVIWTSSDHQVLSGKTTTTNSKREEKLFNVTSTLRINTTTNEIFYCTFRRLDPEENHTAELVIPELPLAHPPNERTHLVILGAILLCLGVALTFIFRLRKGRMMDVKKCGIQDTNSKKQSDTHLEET

Q: With avelumab (antibody) as the substance, how does the pEC50 [1] read?
A: The pEC50 was 10.82.

Q: What about the pEC50 [2] of the same substance?
A: Its pEC50 is 10.01.
